B1: Far upstream element-binding protein 1, residues 98 to 169; numbered along this chain, Q96AE4 (parent)
chain: RSVMTEEYKVPDGMVGFIIGRGGEQISRIQQESGCKIQIAPDSGGLPERSCMLTGTPESVQSAKRLLDQIVE

Data on 38 variants can be found in the Human Domainome abundance scans (Beltran et al. 2025).

± gives the uncertainty stated by the source.

Variants of B1 are the subject of the series. As to the kind of experiment: abundance fitness (aPCA) (normalised: wild type 0, dead -1); higher = more abundant; growth selection in yeast, the domain comes from the species named. The following applies: Homo sapiens.
Regarding RSVMTEEYKVPDGMVGFIIGRGGEQWSRIQQESGCKIQIAPDSGGLPERSCMLTGTPESVQSAKRLLDQIVE [I26W], the abundance fitness is -0.158 ± 0.03. The value for RSVMTEEYKVPDGMVGFIIGRGGEQPSRIQQESGCKIQIAPDSGGLPERSCMLTGTPESVQSAKRLLDQIVE [I26P] was -0.515 ± 0.044; that for RSVMTEEYKVPDGMVGFIIGRGGEQISRGQQESGCKIQIAPDSGGLPERSCMLTGTPESVQSAKRLLDQIVE [I29G] was -0.943 ± 0.035. As for RSVMTEEYKVPDGMVGFIIGRGGEQISRCQQESGCKIQIAPDSGGLPERSCMLTGTPESVQSAKRLLDQIVE [I29C], the abundance fitness is -0.179 ± 0.041. The value for RSVMTEEYKVPDGMVGFIIGRGGEQISRYQQESGCKIQIAPDSGGLPERSCMLTGTPESVQSAKRLLDQIVE [I29Y] was -0.246 ± 0.05. The value for RSVMTEEYKVPDGMVGFIIGRGGEQISRDQQESGCKIQIAPDSGGLPERSCMLTGTPESVQSAKRLLDQIVE [I29D] was -0.935 ± 0.083; that for RSVMTEEYKVPDGMVGFIIGRGGEQISRNQQESGCKIQIAPDSGGLPERSCMLTGTPESVQSAKRLLDQIVE [I29N] was -0.787 ± 0.09; that for RSVMTEEYKVPDGMVGFIIGRGGEQISRKQQESGCKIQIAPDSGGLPERSCMLTGTPESVQSAKRLLDQIVE [I29K] was -0.881 ± 0.065. The value for RSVMTEEYKVPDGMVGFIIGRGGEQISRTQQESGCKIQIAPDSGGLPERSCMLTGTPESVQSAKRLLDQIVE [I29T] was -0.211 ± 0.034; that for RSVMTEEYKVPDGMVGFIIGRGGEQISRFQQESGCKIQIAPDSGGLPERSCMLTGTPESVQSAKRLLDQIVE [I29F] was -0.144 ± 0.053. With RSVMTEEYKVPDGMVGFIIGRGGEQISRHQQESGCKIQIAPDSGGLPERSCMLTGTPESVQSAKRLLDQIVE [I29H], the abundance fitness is -0.423 ± 0.11.

As for RSVMTEEYKVPDGMVGFIIGRGGEQISRQQQESGCKIQIAPDSGGLPERSCMLTGTPESVQSAKRLLDQIVE [I29Q], the abundance fitness is -0.915 ± 0.12. In the case of RSVMTEEYKVPDGMVGFIIGRGGEQISRMQQESGCKIQIAPDSGGLPERSCMLTGTPESVQSAKRLLDQIVE [I29M] it was -0.042 ± 0.034; in that of RSVMTEEYKVPDGMVGFIIGRGGEQISREQQESGCKIQIAPDSGGLPERSCMLTGTPESVQSAKRLLDQIVE [I29E], -0.781 ± 0.04.

As for RSVMTEEYKVPDGMVGFIIGRGGEQISRVQQESGCKIQIAPDSGGLPERSCMLTGTPESVQSAKRLLDQIVE [I29V], the abundance fitness is -0.031 ± 0.029. Consider RSVMTEEYKVPDGMVGFIIGRGGEQISRSQQESGCKIQIAPDSGGLPERSCMLTGTPESVQSAKRLLDQIVE [I29S], for which the abundance fitness was -0.682 ± 0.039. Regarding RSVMTEEYKVPDGMVGFIIGRGGEQISRWQQESGCKIQIAPDSGGLPERSCMLTGTPESVQSAKRLLDQIVE [I29W], the abundance fitness is -0.26 ± 0.033.

With RSVMTEEYKVPDGMVGFIIGRGGEQISRRQQESGCKIQIAPDSGGLPERSCMLTGTPESVQSAKRLLDQIVE [I29R], the abundance fitness was -0.876 ± 0.038. As to RSVMTEEYKVPDGMVGFIIGRGGEQISRPQQESGCKIQIAPDSGGLPERSCMLTGTPESVQSAKRLLDQIVE [I29P], the abundance fitness is -0.906 ± 0.073. The value for RSVMTEEYKVPDGMVGFIIGRGGEQISRAQQESGCKIQIAPDSGGLPERSCMLTGTPESVQSAKRLLDQIVE [I29A] was -0.226 ± 0.03; that for RSVMTEEYKVPDGMVGFIIGRGGEQICRIQQESGCKIQIAPDSGGLPERSCMLTGTPESVQSAKRLLDQIVE [S27C] was -0.042 ± 0.04; that for RSVMTEEYKVPDGMVGFIIGRGGEQIIRIQQESGCKIQIAPDSGGLPERSCMLTGTPESVQSAKRLLDQIVE [S27I] was -0.055 ± 0.057.

As for RSVMTEEYKVPDGMVGFIIGRGGEQIKRIQQESGCKIQIAPDSGGLPERSCMLTGTPESVQSAKRLLDQIVE [S27K], the abundance fitness is 0.036 ± 0.037. The value for RSVMTEEYKVPDGMVGFIIGRGGEQIWRIQQESGCKIQIAPDSGGLPERSCMLTGTPESVQSAKRLLDQIVE [S27W] was -0.057 ± 0.031.

For the variant RSVMTEEYKVPDGMVGFIIGRGGEQIPRIQQESGCKIQIAPDSGGLPERSCMLTGTPESVQSAKRLLDQIVE [S27P], the abundance fitness is -0.198 ± 0.036. The value for RSVMTEEYKVPDGMVGFIIGRGGEQIYRIQQESGCKIQIAPDSGGLPERSCMLTGTPESVQSAKRLLDQIVE [S27Y] was -0.07 ± 0.047; that for RSVMTEEYKVPDGMVGFIIGRGGEQIDRIQQESGCKIQIAPDSGGLPERSCMLTGTPESVQSAKRLLDQIVE [S27D] was -0.046 ± 0.041; that for RSVMTEEYKVPDGMVGFIIGRGGEQIVRIQQESGCKIQIAPDSGGLPERSCMLTGTPESVQSAKRLLDQIVE [S27V] was -0.017 ± 0.027. As for RSVMTEEYKVPDGMVGFIIGRGGEQIGRIQQESGCKIQIAPDSGGLPERSCMLTGTPESVQSAKRLLDQIVE [S27G], the abundance fitness was -0.016 ± 0.023.

As for RSVMTEEYKVPDGMVGFIIGRGGEQIARIQQESGCKIQIAPDSGGLPERSCMLTGTPESVQSAKRLLDQIVE [S27A], the abundance fitness was 0.024 ± 0.027.

In the case of RSVMTEEYKVPDGMVGFIIGRGGEQINRIQQESGCKIQIAPDSGGLPERSCMLTGTPESVQSAKRLLDQIVE [S27N], the abundance fitness was -0.042 ± 0.051. In the case of RSVMTEEYKVPDGMVGFIIGRGGEQITRIQQESGCKIQIAPDSGGLPERSCMLTGTPESVQSAKRLLDQIVE [S27T] it was -0.003 ± 0.032. In the case of RSVMTEEYKVPDGMVGFIIGRGGEQILRIQQESGCKIQIAPDSGGLPERSCMLTGTPESVQSAKRLLDQIVE [S27L], the abundance fitness was -0.054 ± 0.031. Take RSVMTEEYKVPDGMVGFIIGRGGEQIMRIQQESGCKIQIAPDSGGLPERSCMLTGTPESVQSAKRLLDQIVE [S27M]: the abundance fitness was -0.025 ± 0.038. In the case of RSVMTEEYKVPDGMVGFIIGRGGEQIERIQQESGCKIQIAPDSGGLPERSCMLTGTPESVQSAKRLLDQIVE [S27E] it was 0.007 ± 0.033; in that of RSVMTEEYKVPDGMVGFIIGRGGEQIHRIQQESGCKIQIAPDSGGLPERSCMLTGTPESVQSAKRLLDQIVE [S27H], -0.012 ± 0.056. The value for RSVMTEEYKVPDGMVGFIIGRGGEQIRRIQQESGCKIQIAPDSGGLPERSCMLTGTPESVQSAKRLLDQIVE [S27R] was 0.014 ± 0.024; that for RSVMTEEYKVPDGMVGFIIGRGGEQIQRIQQESGCKIQIAPDSGGLPERSCMLTGTPESVQSAKRLLDQIVE [S27Q] was 0.027 ± 0.04.
